Data: patent US20230242640A1 (published 2023)

T1: recombinant hSIRPg-His (Sino Biologicals reference 11828-H08H) (human, UniProt Q9P1W8 29-360)
T1 chain: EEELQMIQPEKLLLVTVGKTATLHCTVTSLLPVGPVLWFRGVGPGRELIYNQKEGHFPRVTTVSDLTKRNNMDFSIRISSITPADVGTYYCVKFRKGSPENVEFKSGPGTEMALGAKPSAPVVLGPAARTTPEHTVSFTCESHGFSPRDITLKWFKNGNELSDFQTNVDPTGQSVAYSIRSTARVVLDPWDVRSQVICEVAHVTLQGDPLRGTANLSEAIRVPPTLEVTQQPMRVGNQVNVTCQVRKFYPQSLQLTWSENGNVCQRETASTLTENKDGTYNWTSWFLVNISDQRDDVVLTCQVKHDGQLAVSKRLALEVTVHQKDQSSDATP

T2: peptide human SIRPgamma VKFRKGSPENVEFKSGPGTEMALGAKPSA-6His
T2 peptide: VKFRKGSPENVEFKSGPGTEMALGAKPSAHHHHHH


Columns and labels:
[1] = molecular target: T1, recombinant hSIRPg-His (Sino …); test: competition ELISA with CD47-Fc
[2] = molecular target: T2, peptide human SIRPgamma …; test: ELISA

IC50 [1] [µg/mL]	EC50 [2] [µg/mL]	Binder
0.045	0.069	anti-SIRPg antibody A5 (antibody, V domains shown) VH: EVQLVESGGGVVRPGGSLRLSCAASGFTFDDYGMSWVRQAPGKGLEWVSGINWNGGSTGYADSVKGRFTISRDNAKNSLYLQMNSLRAEDTAVYYCARQMVKLWGQGTLVTVSR VL: SSELTQDPAVSVALGQTVRITCQGDSLRSYYASWYQQKPGQAPVLVIYGKNNRPSGIPDRFSGSSSGNTASLTITGAQAEDEADYYCNSRDSSGNHVVFGGGTKLTVLR
0.31	0.0258	anti-SIRPg antibody A8 (antibody, V domains shown) VH: not shown VL: SSELTQDPAVSVALGQTVRITCQGDSLRSYYASWYQQKPGQAPVLVIYGKNNRPSGIPDRFSGSSSGNTASLTITGAQAEDEADYYCNSRDSSGNHVVFGGGTKLTVLR
0.19	0.0505	anti-SIRPg antibody A1 (antibody, V domains shown) VH: EVQLVESGGGVVRPGGSLRLSCAASGFTFDDYGMSWVRQAPGKGLEWVSGINWNGGSTGYADSVKGRFTISRDNAKNSLYLQMNSLRAEDTAVYYCARWIAKVWGQGTLVTVSR VL: SSELTQDPAVSVALGQTVRITCQGDSLRSYYASWYQQKPGQAPVLVIYGKNNRPSGIPDRFSGSSSGNTASLTITGAQAEDEADYYCNSRDSSGNHVVFGGGTKLTVLR
